B1: CACACA_negctrl_site1204 (dsDNA)
DNA 1: ATTTTTTTTTTTTTTTTTCATTTTTTTTTTTTTTTT
DNA 2: AAAAAAAAAAAAAAAATGAAAAAAAAAAAAAAAAAT
B2: CACACA_negctrl_site577 (dsDNA)
DNA 1: TCATATTATAAATAAATAAATAAATATATATATATA
DNA 2: TATATATATATATTTATTTATTTATTTATAATATGA
B3: CACACA_negctrl_site1570 (dsDNA)
DNA 1: TTTTTTTTTTTTTTTTTTTTTTTTTTTTTTTGGGGG
DNA 2: CCCCCAAAAAAAAAAAAAAAAAAAAAAAAAAAAAAA
B4: CACACA_negctrl_site1687 (dsDNA)
DNA 1: TATTGATAATTTTATATATACATACATAAATAAATA
DNA 2: TATTTATTTATGTATGTATATATAAAATTATCAATA
B5: CACACA_negctrl_site980 (dsDNA)
DNA 1: ATTTTTAAGCATATCAAAAAAAAAAAAAAAATTAAT
DNA 2: ATTAATTTTTTTTTTTTTTTTGATATGCTTAAAAAT
B6: CACACA_negctrl_site1109 (dsDNA)
DNA 1: TATATATCTGTGAAAATACTTAAATTGTTATAAAAA
DNA 2: TTTTTATAACAATTTAAGTATTTTCACAGATATATA
B7: CACACA_negctrl_site1459 (dsDNA)
DNA 1: AAAAATATATATATATTTCTTCTTTGTTAAAATGTA
DNA 2: TACATTTTAACAAAGAAGAAATATATATATATTTTT
B8: CACACA_negctrl_site869 (dsDNA)
DNA 1: TTCTTACACAAAAAAATGAAATCAATCAAAAAAAAA
DNA 2: TTTTTTTTTGATTGATTTCATTTTTTTGTGTAAGAA
B9: CACACA_negctrl_site1085 (dsDNA)
DNA 1: TATATTCAAAAAAATTCATTTCTGATTTTTTTTTTT
DNA 2: AAAAAAAAAAATCAGAAATGAATTTTTTTGAATATA
B10: CACACA_negctrl_site401 (dsDNA)
DNA 1: TGTTAATATATCATTATGTTATAGGTTCAGCTGGGA
DNA 2: TCCCAGCTGAACCTATAACATAATGATATATTAACA
B11: CACACA_negctrl_site966 (dsDNA)
DNA 1: TATTTGTTTGAATTTTTTTTTTTTTTTTTTTATGTG
DNA 2: CACATAAAAAAAAAAAAAAAAAAATTCAAACAAATA
B12: CACACA_negctrl_site386 (dsDNA)
DNA 1: TCTTACAAGGAACTAATAAAATTGTAGTTTGTATTT
DNA 2: AAATACAAACTACAATTTTATTAGTTCCTTGTAAGA
B13: CACACA_negctrl_site485 (dsDNA)
DNA 1: AAAGTGGCCATATATTTTTTTTTTTTTTTCCTTATT
DNA 2: AATAAGGAAAAAAAAAAAAAAATATATGGCCACTTT
B14: CACACA_negctrl_site76 (dsDNA)
DNA 1: TAAATGTGAAATTTTATATTTTATATAATATACAAT
DNA 2: ATTGTATATTATATAAAATATAAAATTTCACATTTA
B15: CACACA_negctrl_site437 (dsDNA)
DNA 1: ATTATATTAATATATATATATATATATATAATAATA
DNA 2: TATTATTATATATATATATATATATATTAATATAAT
B16: CACACA_negctrl_site1361 (dsDNA)
DNA 1: TTAAAATTCAAAAAAAAAAATCAGAATATCAGAAAA
DNA 2: TTTTCTGATATTCTGATTTTTTTTTTTGAATTTTAA
B17: CACACA_negctrl_site1094 (dsDNA)
DNA 1: TTTTATTGTTTTTTTTTTTTTTCTTTTTTTTTTTTT
DNA 2: AAAAAAAAAAAAAGAAAAAAAAAAAAAACAATAAAA
B18: CACACA_negctrl_site147 (dsDNA)
DNA 1: GATTACCTTTTTTTTTTTTTTTTTTTTTTTTTTTTC
DNA 2: GAAAAAAAAAAAAAAAAAAAAAAAAAAAAGGTAATC
B19: CACACA_negctrl_site1488 (dsDNA)
DNA 1: AATTCTTTTTATATATTAAATATTATTAATAAGTCA
DNA 2: TGACTTATTAATAATATTTAATATATAAAAAGAATT
B20: CACACA_negctrl_site1132 (dsDNA)
DNA 1: ATGTAATCATTTTCGACTTTTTTTTTTTTTTTTTTT
DNA 2: AAAAAAAAAAAAAAAAAAAGTCGAAAATGATTACAT
B21: CACACA_negctrl_site313 (dsDNA)
DNA 1: ATAAACAAACATAAATCTGATTTTAATTTTTTTAAG
DNA 2: CTTAAAAAAATTAAAATCAGATTTATGTTTGTTTAT
B22: CACACA_negctrl_site279 (dsDNA)
DNA 1: TGTTTTTGTGATCATATGAAAAAATTACCTACAAGG
DNA 2: CCTTGTAGGTAATTTTTTCATATGATCACAAAAACA
B23: CACACA_negctrl_site758 (dsDNA)
DNA 1: TTTTAAAAAATAAAATATTATTGAAGTAAAATATGA
DNA 2: TCATATTTTACTTCAATAATATTTTATTTTTTAAAA
B24: CACACA_negctrl_site788 (dsDNA)
DNA 1: GTATATATCTAAAAATATATATATATATATATATAT
DNA 2: ATATATATATATATATATATATTTTTAGATATATAC
B25: CACACA_negctrl_site643 (dsDNA)
DNA 1: TTTTAAAAAATATAATAATATAAATATGTTTTATAC
DNA 2: GTATAAAACATATTTATATTATTATATTTTTTAAAA
B26: CACACA_negctrl_site1773 (dsDNA)
DNA 1: TGGTTATTTATCTTTATTATAAATATTTACAAATAA
DNA 2: TTATTTGTAAATATTTATAATAAAGATAAATAACCA
B27: CACACA_negctrl_site1800 (dsDNA)
DNA 1: TTTTAACGTAATTCAAATGAGCAGAATTTTTTAAAA
DNA 2: TTTTAAAAAATTCTGCTCATTTGAATTACGTTAAAA
B28: CACACA_negctrl_site1802 (dsDNA)
DNA 1: TTATAATAAATATTTATTATATATAATATATATTAC
DNA 2: GTAATATATATTATATATAATAAATATTTATTATAA
B29: CACACA_negctrl_site481 (dsDNA)
DNA 1: TGACTTTTTTTTTTTTTTTTTTTTTTTTATCTTTTT
DNA 2: AAAAAGATAAAAAAAAAAAAAAAAAAAAAAAAGTCA
B30: CACACA_negctrl_site1371 (dsDNA)
DNA 1: ATAATTAGTTCAATTTTTTTTTTTTTTTTTTTTTTT
DNA 2: AAAAAAAAAAAAAAAAAAAAAAATTGAACTAATTAT
B31: CACACA_negctrl_site856 (dsDNA)
DNA 1: TTTCCTGGTCAAGGGGTTACGGTTACGTCCTCTTGC
DNA 2: GCAAGAGGACGTAACCGTAACCCCTTGACCAGGAAA
B32: CACACA_negctrl_site1471 (dsDNA)
DNA 1: TGGATTTTTTGATTTTTGTTTTTCTTCTTTCCCCCC
DNA 2: GGGGGGAAAGAAGAAAAACAAAAATCAAAAAATCCA

Each binder was assayed against T1, AP2-HC D1 (Plasmodium falciparum, UniProt Q8IKR9 1316-1374) (assay: gcPBM; about 25 ug protein; PBS, 1% milk, 0.2 mg/ml BSA, salmon testes DNA, 0.03% Triton X-100). Conditions: tags: N-terminal GST (pGEX-4T-1), kept; label: surface-attached array probe.
T1 sequence: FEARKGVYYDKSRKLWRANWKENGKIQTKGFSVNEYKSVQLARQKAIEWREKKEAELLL

Going from B1 to B2, the binding signal falls from 9.43 ln median PBM intensity, better of two orientations to 9.41 ln median PBM intensity, better of two orientations.

Going from B3 to B4, the binding signal rises from 9.36 ln median PBM intensity, better of two orientations to 9.44 ln median PBM intensity, better of two orientations.

First: B5
Second: B6
The binding signal of the first is lower: 9.35 ln median PBM intensity, better of two orientations for the first, 9.44 ln median PBM intensity, better of two orientations for the second.

First: B7
Second: B8
The binding signal of the first is higher: 9.42 ln median PBM intensity, better of two orientations for the first, 9.37 ln median PBM intensity, better of two orientations for the second.

Going from B9 to B10, the binding signal falls from 9.44 ln median PBM intensity, better of two orientations to 9.41 ln median PBM intensity, better of two orientations.

Going from B11 to B12, the binding signal rises from 9.38 ln median PBM intensity, better of two orientations to 9.42 ln median PBM intensity, better of two orientations.

Compared with B13, B14 is lower in binding signal: 9.44 ln median PBM intensity, better of two orientations for the first, 9.39 ln median PBM intensity, better of two orientations for the second.

First: B15
Second: B16
The binding signal of the first is higher: 9.4 ln median PBM intensity, better of two orientations for the first, 9.36 ln median PBM intensity, better of two orientations for the second.

First: B17
Second: B18
The binding signal of the first is higher: 9.39 ln median PBM intensity, better of two orientations for the first, 9.37 ln median PBM intensity, better of two orientations for the second.

Going from B19 to B20, the binding signal falls from 9.39 ln median PBM intensity, better of two orientations to 9.38 ln median PBM intensity, better of two orientations.

Compared with B21, B22 is lower in binding signal: 9.42 ln median PBM intensity, better of two orientations for the first, 9.38 ln median PBM intensity, better of two orientations for the second.

Going from B23 to B24, the binding signal rises from 9.36 ln median PBM intensity, better of two orientations to 9.43 ln median PBM intensity, better of two orientations.

Compared with B25, B26 is higher in binding signal: 9.34 ln median PBM intensity, better of two orientations for the first, 9.44 ln median PBM intensity, better of two orientations for the second.

Going from B27 to B28, the binding signal rises from 9.36 ln median PBM intensity, better of two orientations to 9.39 ln median PBM intensity, better of two orientations.

Compared with B29, B30 is lower in binding signal: 9.43 ln median PBM intensity, better of two orientations for the first, 9.38 ln median PBM intensity, better of two orientations for the second.

Compared with B31, B32 is higher in binding signal: 9.35 ln median PBM intensity, better of two orientations for the first, 9.4 ln median PBM intensity, better of two orientations for the second.

— paper PMC11417369, “DNA sequence and chromatin differentiate sequence-specific transcription factor binding in the human malaria parasite Plasmodium falciparum”
